Protein production data for 21 sequences are collected here from a protein production outcome set (Wang et al. 2014).

A short description of the series: label from the status in PepcDB records.
For the sequence “MESLSIIFRWFVGLRSVGSSLGRKPDQTEETTLTTKLDIAPANDRELVVARIIDAPRENVYRCWTDTRLLTQWFSPKPWTTPRAEMDMRTGGSSLVIMADPDGNEFPNPGVFLEVIPGKKIIFTDAYTQAWEPSEKPFMTGVLTFEDEGEGRTRYIARVRHWSVADRERHEAMGFHVGWGQCTDQLEDLARTL”, the protein production entry is on record as “failed”. To “MESLTLQPIELISGEVNLPGSKSVSNRALLLAALASGTTRLTNLLDSDDIRHMLNALTKLGVNYRLSADKTTCEVEGLGQAFHTTQPLELFLGNAGTAMRPLAAALCLGQGDYVLTGEPRMKERPIGHLVDALRQAGAQIEYLEQENFPPLRIQGTGLQAGTVTIDGSISSQFLTAFLMSAPLAQGKVTIKIVGELVSKPYIDITLHIMEQFGVQVINHDYQEFVIPAGQSYVSPGQFLVEGDASSASYFLAAAAIKGGEVKVTGIGKNSIQGDIQFADALEKMGAQIEWGDDYVIARRGELNAVDLDFNHIPDAAMTIATTALFAKGTTAIRNVYNWRVKETDRLAAMATELRKVGATVEEGEDFIVITPPTKLIHAAIDTYDDHRMAMCFSLVALSDTPVTINDPKCTSKTFPDYFDKFAQLSR” belongs “not failed”; to “MESMQDLWTLKYRAETLEGMLGNEHAVRTLSELLQSGTLPHLIFYGPENSGKTTASLALARELYGETWKNNFVYFNASDFFDQGKRYLVRDKRFVRILGTDDPKKIYKSVIDIFKEVVNEYAGMASIDADYKIIYIDNAESLSSDAQHALRRIMEKYSSTCRFILSTTRPSKLISPLRSRGLQVFFAYVPDSLLKTHLERIALAEKLKLSDGALDAVLYLAKGNVARAVQTLQLAALRSEGAEITEEIVYEATMKGRDETIDELLEAALAGDFARGRQLIDGMIIEKGLSGTDIFEGLSEALIDSGETDADIARLIVSISEADARLTDATSERIQLEKLISTFS”, “failed”; to “MESSGNPESTTFFYYDLQSQPCENQAWVFATLATTVLYCLVFLLSLVGNSLVLWVLVKYESLESLTNIFILNLCLSDLVFACLLPVWISPYHWGWVLGDFLCKLLNMIFSISLYSSIFFLTIMTIHRYLSVVSPLSTLRVPTLRCRVLVTMAVWVASILSSILDTIFHKVLSSGCDYSELTWYLTSVYQHNLFFLLSLGIILFCYVEILRTLFRSRSKRRHCTVKLIFAIVVAYFLSWGPYNFTLFLQTLFRTQIIRSCEAKQQLEYALLICRNLAFSHCCFNPVLYVFVGVKFRTHLKHVLRQFWFCRLQAPSPASIPHSPGAFAYEGASFY”, “failed”.

Turning to “MESTKQEEQGIYAATPPATGLLERLFKLRQHGTTVRTELAAGLTTFITMAYIIFVNPNIMADAGIDHGAAFVATCLAAALGCFLMGLYANWPVGLAPGMGLNAFFTYTVVGTMGYSWQIALGAVFISGVMFMLLTFSRVREWLLNSIPRSLRFAMGAGVGLFLGLIGLKTAGIVVASPATLIKLGHLTSPGPLLAALCFLMIAVLEYRRVFGGILISILSVTLVGWALGLVQYGGVFSAPPSLAPTFLAMDIAGAFNVTMISVILAFLFVHMFDTAGTLMGVAQRAHLVKEDGRIENLSKAMKADSASSVFGGMLGVPPVTSYVESAAGVAAGGRTGLTAVVVGVLFVAAMFFAPLAGMIPAFATAGALIYVAMLMMGGMAHIDWDEHTETIPAIVTVIMMPLTFSVADGIALGFITYVAMKVLTGKHREVSASLYALFVIFVAKFIFL”, the protein production entry was “failed”.

Consider “MESYDIEGSNQNYVYINVNRWTSTEYPQNTFVYEVLRTPIGSSLESGPEIVKVGVRSTKVASKDITVTLDIDNCASIGEFSSFPDGVKVTLDKKELVIPAGSMLSSDSVTIEIEDGKWSEFVNTSYLLPLKVTSVSNAALSETHSSAYLAVSTSFTNCVPGATSVEGTLISDRSAWTATNNGVDVGTTLFDGNTRTYPSQDASSTVIVNLNGVYQNITGIRLQYYSRNYSLSSAAVYTSETGGEDYEYQGNVTFSRATPQYIRFYGAVSARYVKLELLPYSSGYGIVLSEFDMYQNELEHHHHHH”, for which the protein production entry is listed as “not failed”. To “METKILSNATHKCVLVIDNAQPTGIVANIASVLSMTLGCRVSNIVSHDVYDKQGERHLGITQLPIPILGASQEKIKELRNYFHSLEIEDLVLVDFSTIAQQSRTYDEYEREMYSANEDDLHYVGIGICAEKKAINKATGSLSLIRLEHHHHHH” belongs “failed”; to “METLILTQEEVESLISMDEAMNAVEEAFRLYALGKAQMPPKVYLEFEKGDLRAMPAHLMGYAGLKWVNSHPGNPDKGLPTVMALMILNSPETGFPLAVMDATYTTSLRTGAAGGIAAKYLARKNSSVFGFIGCGTQAYFQLEALRRVFDIGEVKAYDVREKAAKKFVSYCEDRGISASVQPAEEASRCDVLVTTTPSRKPVVKAEWVEEGTHINAIGADGPGKQELDVEILKKAKIVVDDLEQAKHGGEINVAVSKGVIGVEDVHATIGEVIAGLKDGRESDEEITIFDSTGLAIQDVAVAKVVYENALSKNVGSKIKFFRI”, “not failed”; to “METLSVGHKIKTLRQSLGLSQRDLAEGICTQALISHIEKNKTTPTVDVFFNIAKKLGAPADYFLETHDNSLDYILEVQYQIRKQVQEHNYEEALNIIKTERKNPIFNNSKYLQFLLWHEAICEYSLNKRYNEAVEAIEEALKLTHKEGNSYSEREIEILISLANFHDSEKKYDLSTKIYQDINDSLKALSYLSDRKIQLRFLFNYSLNRNNVKRYKEAIDLCNKGIILCKQHGFLYSFGEFHYQKGQNLIDLGRKKEALKFLEKAKMIFDIQDNELFANIADKEIKKLQKSLEMTVS”, “failed”. To “METRARYVLIGIFTLASILATLGFLLWLAKVQLDRTYAEYDILFTSVEGLGRASPVRYNGVDVGEVLNIAVDAEDPSLVRVRIQLAATTPVRTDTKAQVASQGVTGVSYVSLSGGAAPEPLTAEGDQWPPVIPSERSAVQALTADAPTLLAEAIALLKDIQTFTGPENRAAVESILTNADASVQNIAAITRDAAEATSRLNDFTARLDAMADRADVALASLETALEEGKGAAASARDTFEAVNRVVDRDVPPMIAQIRSAVSGIERSVAGIRNFADNGLPQYATLAAETRRTVTNLNSLIAQISRDPARFFLGSQTPSYRR” belongs “failed”. For “METSKKLVIVAVLSITLILTYAYLISIIEGVDYFTALYFSVITITTTGYGDFTPKTFLGRTLTVVYLCVGVGIVMYLFSLIAEFIVEGKFEEFVRLKKMKNKIKTLKDHYIICGYGRLGKVVGEKFIEENIPFIAIDINEDVLKEEYEKYPDKFLYIVGDAKKEEVLKKAKIDKAKGLIATLPSDADNVFLTLTARELNPNILITAKADEKEAIRKLKIAGANRVVSPYLIGGLRMAEVSVRPGILDFLSTFIKIAKDEYEEDIELRKFVIEKDSELAYKSLKDANIRGKTGATILGIRREKEFCINPYPEFILKPGDVIYAFGTEENLKYLENLVKKKKKKL”, the protein production result is on record as “failed”.

Regarding “METVRPMVVAPKGNKLRRKFAKVLNIHKLTGVAPEGEMKKIKFDSKTAKLSESFYKLEEEYERSQGLEALLAKLFATVSSIKAAYAQLQHSQSPYDSIGIQKADNLVVAELKTLSELKQCFMKKQVDPNPERTLVLAEIQELRSLLKTYEIMGKKLESQYKLKDSEIIFLREKLDESMKQNKLTEKRLNQSGQLCNPLDNLHLSALNPTHFVTYLHHTVKSTRGFVKLMIEQMKLAGWDISSAANSIHPGVFYYKQDHKCFTFEHFVSNVMFEAFHLPYFSTSSESRSYKKKKQSNADREMFFERFKELRSMKAKDYLTARPKSRFARFCRAKYLQLIHPKMEQAFFGHLHLRNQVSAGEFPETSLFSGFLEMAKRIWLLHCLALSFEREAEIFRVPKGCRFSEVYMKSVAEEAFFPAAESSPESEPRVAFTVVPGFRIGKTSIQCEVYLSLS”, the protein production result is reported as “failed”. As for “MEVKQGLTLFARKQDMKSVWEITGSNIDLVCIGNFCRSLKDLSSRGGTDASTNTCMLPWQYSLQKPLLGVSYLNSDGSSQSTPHGSNGLVKRGATYIVSDDLTICVKKKFDVNLDDIFEHEINIGKTHSLIRDIHCLDYGFRELSFRETTLKHQSHALCGAD”, the protein production entry is given as “failed”.

Take “MEVSHVTLEPNKDSRPAVLTIGKFDGVHLGHQTILNTALSIKKENEILTAISFSPHPLWALKQIEIYREMLTPRMEKERWLAHYGVDHLIETAFTPRYAETTPEEFVTDHLSNLQLSHIIVGSEFNFGKGRDSDVDLLRDLCKPYGIGVTSVPVIETNQTKISSTNIRAFIRRGHFLEAEQLLGHP”: the protein production entry was “failed”. Take “MEWGISLQTKWSLSEYENPKRYDIENKSLSDFPFLLSWAQKLHIQNEWILDIACGTGRVTIPFIENGYQMIGVDIHEGMLAEAKKKTTDCKKVKWLQQDCLQLSMNEAIPFAFMVGHGFQHFLTNTDQNKLLTSIHHVLAENGIFIFDTRFPSKEELIQPSTEEYWTTISDEKGRECDLYTEMTYDLIQQIQHYITIRKFYDDDALVEELKTTIDLRYTYPQELERLLVANGFELLHIYNDWEGNELGEDCYSMVVVCRKK”: the protein production result is recorded as “failed”. Take “MEYLFLRRKRTTATSERQKTLLFKAAERQWKEEFAGKETDIRKVDCNIYKGILYQLEIRQVFLDTSLSLKKLSALLETNQTYLSNVVNKYFGCNLKELVNTYRVEYAKELLCSRRCALTELPCSCGFASKSAFYSAFSRIVGVSPLSYQTQERRRHHLQAVNLEHHHHHH”: the protein production entry was “failed”. For the sequence “MEYLIYSLIAVIILTVGLNNIFKKQSKYFYMLATLISVVVTSYEIFKIWTGFKLEGIIFVLERSFMKGFVSTALFILVMFAGALSKKWGITKKLLRVRAEMAILASILILPHFIIYTYKFLVRLFSGKPLSILYISFIIVGLIAFIIMIPLFITSFKKVRVTMSPSKWKMVQRWAYPFYFLVYVHIILILFNKKVFNLNAVIIYTVIFLGYFILRICNNKKAIK”, the protein production result was “failed”.

On to “MEYNVQDMIFQFIGGLGIFLFGIKYMGDGLQQAAGDRLRDILDRFTTNPLMGVLAGMLVTVLIQSSSGTTALTVGLVSAGFMTLRQAIGVIMGANIGTTVTAFIIGIKIGEYALPVMAVGAILLFFFKNKKVHSVGQVVFGFGMLFFGLELMSAGMKPLRSLESFQELTVSMSDNPILGIVVGTVFTLIVQSSSATIGILQELFGQGAIDLQAALPVLFGDNIGTTITAVLAAIGTSIAARRAALVHVIFNIIGTIIFTILLIPFTSLIQYFQTSLNLNPEMTIAFAHGTFNVTNTIIQFPFIAVLAWIVTKIIRGEDAAIDFKPQHLNPIFIEQSPAIALTEAQKEIIRMAEFSLHGLKEANQFLNTQDKKHANMATQLEGAINNLDKKITEYLVLLSEKPLSPTDSEKHSVLAGVVGDIERVGDHVENLVELVDFQISNRVSLSDEALAELNEMLELTISTLQDSVEALTNFDTELAQTVIAKERKIDQMERVLRKRHVLRLNERSCSGDASIIFVDMVSNLERIGDHAVNIADGVLGEQGKINLKQSL”, for which the protein production result was “failed”.

Turning to “MEYQLSQAGNKGKVLILKVTGIFFVALAILGVVLPILPTTPFLLVAAACFAKSSPTMQRKLLANKTFGPLIHDWQKYRSIPRKAKRIALLTMILSVCWSAFMLQSVMLTALVVALVIGPFIFLLRLPESK”, the protein production result was “failed”. Consider “MFACMGVLVKLAAAFFSNTELVFYRSLVGVITTFLVMRAYGMPLVTEHWKSHCWRGLSGLGGVLLFFYCILQLPLATAISLNNTWPLFLAFLAMILLKEEFSWLLAGALVVGFIGVIFLLRPTLAEGQWYLALIGIGSGLFAGIAHFHVRQLSELGESDWLTVFYFTLVCTVATGLWLTFTAFSAVSLQSLTLALGIGVTATLAQLAISRAHRGSNILIVGVLSYSSVLFAGLMDLFFWDARLPVSAWVGMGLIILGGLLSIRGIPVRNSSIVTLDD”, for which the protein production result is listed as “failed”. To “MFAFPRLRFVLVGTQHPGNIGAAARAMKTMGISRLVLVAPECQLDEHAYRRSAGAEDVLEAASVHTVLADAVADCTFVLGCTARTRRVAFEELRPAAAASQILTNINAAGEVALLFGRERTGLTNEELQLCHVAVHIPADPLFSSLNLAAAVQILAYEIRLASLDAPSAPLHSTSGFRKTPASHAQLEGLFGQFKQTLDEIDFHKGRAPESAMRKLRRLFAKAELTQQEIRLLRGVLSDVQRIVMLKRQRDT” belongs “failed”.
